According to article PMC7642358 (Nature Communications, 2020):
Positions count from the first letter of the chain named.

B1: sybody 12 (Sb12) (VHH)
VHH: QVQLVESGGGLVQAGGSLRLSCAASGFPVQLYWMEWYRQAPGKEREWVAAITSDGDYTEYADSVKGRFTISRDNAKNTVYLQMNSLKPEDTAVYYCYVKVGEWYYGQGTQVTVS
notes: source: E. coli MC1061 F-, periplasmic extract, purified (Ni-NTA, desalted in PBS)
B2: sybody 42 (Sb42) (VHH)
VHH: QVQLVESGGGLVQAGGSLRLSCAASGFPVYNTWMEWYRQAPGKEREWVAAITSWGFKTYYADSVKGRFTISRDNAKNTVYLQMNSLKPEDTAVYYCNVKDEGYTGYYYDYWGQGTQVTVS
notes: as for B1
B3: sybody 100 (Sb100) (VHH)
VHH: QVQLVESGGGSVQAGGSLRLSCAASGSISSITYLGWFRQAPGKEREGVAALVTSDGRTYYADSVKGRFTVSLDNAKNTVYLQMNSLKPEDTALYYCAAANWGYSWPLYQTEYWYWGQGTQVTVS
notes: as for B1
B4: 90 (VHH)
VHH: QVQLVESGGGSVQAGGSLRLSCAASGAINQIYYLGWFRQAPGKEREGVAALSTKYGETYYADSVKGRFTVSLDNAKNTVYLQMNSLKPEDTALYYCAAARWGRQYPLTFVYYSYWGQGTQVTVS
B5: 94 (VHH)
VHH: QVQLVESGGGSVQAGGSLRLSCAASGYITMIEYLGWFRQAPGKEREGVAALNTHTGGTYYADSVKGRFTVSLDNAKNTVYLQMNSLKPEDTALYYCAAARWGRYEPLHYAYYSYWGQGTQVTVS
B6: 83 (VHH)
VHH: QVQLVESGGGSVQAGGSLRLSCAASGGITHIVYLGWFRQAPGKEREGVAALMTRWGTTYYADSVKGRFTVSLDNAKNTVYLQMNSLKPEDTALYYCAAAKYGQNFPLSYHAYRYWGQGTQVTVS
B7: 82 (VHH)
VHH: QVQLVESGGGSVQAGGSLRLSCAASGTINSIHYLGWFRQAPGKEREGVAALDTYIGYTYYADSVKGRFTVSLDNAKNTVYLQMNSLKPEDTALYYCAAARWGRTSPLHWYYYTYWGQGTQVTVS
B8: 93 (VHH)
VHH: QVQLVESGGGSVQAGGSLRLSCAASGHIAQIEYLGWFRQAPGKEREGVAALSTNQGYTYYADSVKGRFTVSLDNAKNTVYLQMNSLKPEDTALYYCAAARWGRTYPLSYMAYTYWGQGTQVTVS
B9: 84 (VHH)
VHH: QVQLVESGGGSVQAGGSLRLSCAASGYIKHIEYLGWFRQAPGKEREGVAALKTSSGSTYYADSVKGRFTVSLDNAKNTVYLQMNSLKPEDTALYYCAAARYGRSDPLHYHEYSYWGQGTQVTVS
B10: 86 (VHH)
VHH: QVQLVESGGGSVQAGGSLRLSCAASGTIASIIYLGWFRQAPGKEREGVAALNTWNGKTYYADSVKGRFTVSLDNAKNTVYLQMNSLKPEDTALYYCAAAYSGMWYPLSNEHYGYWGQGTQVTVS
B11: 88 (VHH)
VHH: QVQLVESGGGLVQAGGSLRLSCAASGFPVWAHHMLWYRQAPGKEREWVAAIASWGANTAYADSVKGRFTISRDNAKNTVYLQMNSLKPEDTAVYYCNVKDSGQYRENYDYWGQGTQVTVS
B12: 85 (VHH)
VHH: B3 VHH with D55R, R57K, N100S, S104T, Q109T, T110Y, E111D
B13: 97 (VHH)
VHH: QVQLVESGGGSVQAGGSLRLSCAASGAISTIEYLGWFRQAPGREREGVAALYTERGYTYYADSVKGRFTVSLDNAKNTVYLQMNSLKPEDTALYYCAAARYGHAQAPLHYFWYGYWGQGTQVTVS

These binders were tested against T1, SARS-CoV-2 spike receptor-binding domain (2019-nCoV RBD-SD1, residues 319–566) (SARS-CoV-2, UniProt P0DTC2) (assay: BLI). Conditions: both partners purified.

| Binder | Kd |
| --- | --- |
| B1 | 24.2 nM |
| B2 | 5 nM |
| B3 | 38.7 nM |

Each binder was assayed against T1, SARS-CoV-2 spike receptor-binding … (assay: not given). Conditions: not given.

| Binder | binding result |
| --- | --- |
| B4 | binds |
| B5 | binds |
| B6 | binds |
| B7 | binds |
| B8 | binds |
| B9 | binds |
| B10 | binds |
| B11 | binds |
| B12 | binds |
| B13 | binds |
